From patent US20130230527A1 (University of California, published 2013)

Columns and labels:
[1] = target: T1, biotin conjugated 24 amino acid peptide of the extracellular loop of mouse EMP2 (mouse, biotin conjugated (position not given)); assay: ELISA on cognate EMP2 peptide (data not shown)
T1 construct: The EMP2 part is followed by a GSGSK tail; also called mEMP2 peptide; mEMP2
T1 peptide: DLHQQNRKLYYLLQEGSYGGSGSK

[2] = target: T2, biotin conjugated 24 amino acid peptide of the extracellular loop of human EMP2 (human, biotin conjugated (position not given)); assay: ELISA, diabody titration on hEMP2 peptide on streptavidin plates
T2 construct: The EMP2 part is followed by a GSGSK tail; also called hEMP2 peptide; hEMP2
T2 peptide: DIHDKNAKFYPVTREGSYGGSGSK
Protocol: (§1) 10 μg/mL of biotinylated 24 amino acid peptide (see the phage library selection section above) was coated onto streptavidin-coated 96-well plates (Roche Applied Science, Indianapolis, Ind.) in PBS for 1 hour at room temperature. Plates were then washed with PBS and blocked with 2% milk PBS for 2 hours at 37° C. Expressed phage antibodies or diabodies were added to each well, incubated at room temperature for 1 hour, and washed with 0.05% PBS/Tween three times. Bound antibodies or diabodies were detected with mouse anti-c-Myc (9E10) antibody (Calbiochem, San Diego, Calif.), followed by horseradish peroxidase (HRP) conjugated anti-mouse antibody (BD Bioscience Pharmingen, Franklin Lakes, N.J.) and TMB solution (eBioscience, San Diego, Calif.). Plates were read by microplate reader Model 550 (Bio-Rad, Hercules, Calif.) at 450 nm.
(§2) Specificity and titer of selected diabodies were initially tested by ELISA using plates coated with hEMP2 or mEMP2 peptides. […] Using monovalent scFv products of these two antibodies, the EC₅₀ for cognate EMP2 peptide was >2 μg/mL (data not shown). Thus, divalency contributed to the avidity of the two anti-EMP2 diabodies.

[3] = target: T1, biotin conjugated 24 amino acid peptide …; assay: ELISA on peptide-coated plates
Protocol: as §1, §2

[4] = target: T2, biotin conjugated 24 amino acid peptide …; assay: method and target not given; reference is the original scFv
[5] = target: T1, biotin conjugated 24 amino acid peptide …; assay: ELISA, diabody titration on mEMP2 peptide on streptavidin plates
Protocol: as §1, §2

[6] = target: T2, biotin conjugated 24 amino acid peptide …; assay: ELISA on peptide-coated plates
Protocol: as §1, §2

[7] = target: T1, biotin conjugated 24 amino acid peptide …; assay: method and target not given; reference is the original scFv
[8] = target: T2, biotin conjugated 24 amino acid peptide …; assay: ELISA on cognate EMP2 peptide (data not shown)

B1: KS83 monovalent scFv (scFv)
scFv: MAQVQLVESGGGLVQPGGSLRLSCAASGFTFSSYAMHWVRQAPGKGLEWVAVISYDGSNKYYADSVKGRFTISRDNSKNTLYLQMNSLRAEDTAVYYCARTVGATGAFDIWGQGTMVTVSSSGGGGSGGGGSGGGGSDIVMTQSPSTVSASVGDRVIIPCRASQSIGKWLAWYQQKPGKAPKLLIYKASSLEGWVPSRFSGSGSGTEFSLTISSLQPDDSATYVCQQSHNFPPTFGGGTKLEIKRAAAEQKLISEEDLNGAAHHHHHH
notes: The original scFv before the linker was shortened; also called KS83 scFv
[1]
  EC50: > 2 µg/mL

B2: anti-EMP2 diabody KS49 (other)
chain: MAQVQLVQSGGGVVQPGRSLRLSCAASGFTFSSYAMHWVRQAPGKGLEWVAVISYDGSNKYYADSVKGRFTISRDNSKNTLYLQMNSLRAEDTAVYYCARDRRGRKSAGIDYWGQGTLVTVSSSGGGSDIQMTQSPSSLSASVGDRVTITCQASQDISNYLNWYQQKPGKAPKLLIYAASSLQSGVPSRFSGSGSGTDFTLTISSLQPEDFATYYCLQDYNGWTFGQGTKVDIKRAAAEQKLISEEDLNGAAHHHHHH
notes: Diabody: bivalent dimer of a VH-5 aa linker-VL chain with c-Myc and 6 His tags, made in E. coli TG1; Selected against the hEMP2 peptide; also called K49; anti-hEMP2 diabody
[2]
  EC50: 0.0531 µg/mL
[3]
  binding result: no binding
[4]
  fold increase in binding activity compared to original scFvs: > 20 fold

B3: anti-EMP2 diabody KS83 (other)
chain: MAQVQLVESGGGLVQPGGSLRLSCAASGFTFSSYAMHWVRQAPGKGLEWVAVISYDGSNKYYADSVKGRFTISRDNSKNTLYLQMNSLRAEDTAVYYCARTVGATGAFDIWGQGTMVTVSSSSGGGSDIVMTQSPSTVSASVGDRVIIPCRASQSIGKWLAWYQQKPGKAPKLLIYKASSLEGWVPSRFSGSGSGTEFSLTISSLQPDDSATYVCQQSHNFPPTFGGGTKLEIKRAAAEQKLISEEDLNGAAHHHHHH
notes: Diabody: bivalent dimer of a VH-5 aa linker-VL chain with c-Myc and 6 His tags; Selected against the mEMP2 peptide; also called K83; diabody 83
[5]
  EC50: 0.00932 µg/mL
[6]
  binding result: no binding
[7]
  fold increase in binding activity compared to original scFvs: > 20 fold

B4: KS49 monovalent scFv (scFv)
scFv: MAQVQLVQSGGGVVQPGRSLRLSCAASGFTFSSYAMHWVRQAPGKGLEWVAVISYDGSNKYYADSVKGRFTISRDNSKNTLYLQMNSLRAEDTAVYYCARDRRGRKSAGIDYWGQGTLVTVSSGGGGSGGGGSGGGGSDIQMTQSPSSLSASVGDRVTITCQASQDISNYLNWYQQKPGKAPKLLIYAASSLQSGVPSRFSGSGSGTDFTLTISSLQPEDFATYYCLQDYNGWTFGQGTKVDIKRAAAEQKLISEEDLNGAAHHHHHH
notes: The original scFv before the linker was shortened; also called KS49 scFv
[8]
  EC50: > 2 µg/mL
